Laboratory results as given in patent US20190218304A1, “POTENTIATING THE EFFECT OF ATP RELEASE” (INNATE PHARMA, priority 2017, published 2019).
“Also recorded” adds a separate entry of the source.

Tests used:
[1] = system: MCA205 mouse tumor cells (sarcoma); experiment: In vivo combination treatment, MCA205 tumors in human CD39 KI mice; conditions: second experimental series: oxaliplatin injected twice, one week apart, one day after I-394
Protocol: 1×10^6 MCA205 mouse tumor cells (sarcoma) were subcutaneously engrafted in the right flank of mice genetically modified to express human CD39 (CD39KI mice). […] Tumors were measured twice a week with a caliper (L: length and w: width) and tumor volume was calculated with the formula (L×w2)/2. Mice were sacrificed when tumor volume was above 1800 mm^3 or when tumors were highly necrosed. The human CD39 KI mice were engrafted with MCA205 tumor cells at day 0.
In a first experimental series, mice were treated at day 5 post tumor cell engraftment with either control (1 group) PBS, or oxaliplatin chemotherapy (2 groups). In parallel, one group of mice treated with oxaliplatin was injected twice a week with anti-CD39 antibody, with the anti-CD39 antibody treatment starting just one day before oxaliplatin treatment (at day 4).

[2] = target: T1, CD39 expressed by Ramos human lymphoma cells (Homo sapiens, UniProt P49961); experiment: Inhibition of the enzymatic activity of cellular CD39, Ramos cells (Cell Titer Glo); assay type: cell-based
T1 construct: host or cells: Ramos human lymphoma cells
T1 sequence (P49961 1-510): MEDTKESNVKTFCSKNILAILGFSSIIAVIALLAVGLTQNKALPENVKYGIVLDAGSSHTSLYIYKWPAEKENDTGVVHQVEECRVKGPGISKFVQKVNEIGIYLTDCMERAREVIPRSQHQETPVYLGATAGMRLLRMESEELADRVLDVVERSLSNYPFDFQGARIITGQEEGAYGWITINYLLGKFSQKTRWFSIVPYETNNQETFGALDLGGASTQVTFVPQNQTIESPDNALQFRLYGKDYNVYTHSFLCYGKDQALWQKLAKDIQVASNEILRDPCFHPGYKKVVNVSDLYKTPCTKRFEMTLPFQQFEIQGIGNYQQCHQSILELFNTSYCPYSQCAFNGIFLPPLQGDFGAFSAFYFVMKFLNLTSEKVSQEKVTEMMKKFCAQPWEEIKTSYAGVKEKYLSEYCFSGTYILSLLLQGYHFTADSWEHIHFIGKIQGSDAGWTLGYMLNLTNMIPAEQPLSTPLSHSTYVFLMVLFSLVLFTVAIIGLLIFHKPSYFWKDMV
Protocol: (§1) The inhibition of the CD39 enzymatic activity in CD39-expressing cells by antibodies was evaluated using Cell Titer Glo™ (Promega, reference G7571) that allows assessment of ATP hydrolysis through use of a reagent that generates a luminescent signal proportional to the amount of ATP present. The assay was thus designed to permit assessment of the inhibition of ATP hydrolyzed by CD39 in the cell culture supernatant. Briefly, 5×10^4 Ramos human lymphoma cells, 5×10^3 human CD39-, cynomolgus CD39- and mouse CD39-expressing CHO cells, were incubated 1 hour at 37° C. with anti-CD39 antibodies from 30 μg/ml to 5×10^−4 μg/ml. Cells were then incubated with 20 μM ATP for 1 additional hour at 37° C. Plates were centrifuged for 2 min at 400 g and 50 μl cell supernatant are transferred in a luminescence microplate (white wells). 50 μl CellTiter-Glo® Reagent (CTG) was added to the supernatant and emitted light was quantified after a 5 min incubation in the dark using a Enspire™ luminometer. Anti-CD39 antibody efficacy was determined by comparing emitted light in presence of antibody with ATP alone (maximal light emission) and ATP together with cells (minimal light emission).

cell-membrane bound CD39 = target: T2, cell-membrane bound CD39 (Homo sapiens, UniProt P49961); experiment: Inhibition of the enzymatic activity of cellular CD39 (cells not specified); assay type: cell-based
T2 sequence (P49961 1-510): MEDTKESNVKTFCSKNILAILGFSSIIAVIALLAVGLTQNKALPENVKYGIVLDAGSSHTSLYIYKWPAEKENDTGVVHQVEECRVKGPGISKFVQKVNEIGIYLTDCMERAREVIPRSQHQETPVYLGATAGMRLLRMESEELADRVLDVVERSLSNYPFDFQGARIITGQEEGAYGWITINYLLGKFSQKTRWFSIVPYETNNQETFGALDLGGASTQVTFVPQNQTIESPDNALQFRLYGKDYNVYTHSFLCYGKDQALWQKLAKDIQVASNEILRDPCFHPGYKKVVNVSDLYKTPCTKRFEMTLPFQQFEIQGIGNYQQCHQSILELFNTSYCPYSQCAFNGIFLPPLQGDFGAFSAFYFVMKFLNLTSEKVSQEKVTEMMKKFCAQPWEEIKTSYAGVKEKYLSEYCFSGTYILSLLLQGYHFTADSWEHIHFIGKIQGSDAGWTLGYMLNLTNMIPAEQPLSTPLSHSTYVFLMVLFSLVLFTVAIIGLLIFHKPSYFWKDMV
Protocol: as §1, with “emission). […]” for “emission).”

[3] = system: cynomolgus CD39-expressing CHO cells; experiment: Inhibition of the enzymatic activity of cellular CD39, CHO-cyCD39 cells; assay type: cell-based; conditions: result in words
Protocol: as §1

B1: I-394: anti-CD39 antibody, VH SEQ ID NO: 3, VL SEQ ID NO: 4; heavy and light chains SEQ ID NOS: 37 and 38 (antibody)
heavy: EVQLQQSGPELVKPGASVKMSCKASGYTFTDYNMHWVKQSHGRTLEWIGYIVPLNGGSTFNQKFKGRATLTVNTSSRTAYMELRSLTSEDSAAYYCARGGTRFAYWGQGTLVTVSAASTKGPSVFPLAPSSKSTSGGTAALGCLVKDYFPEPVTVSWNSGALTSGVHTFPAVLQSSGLYSLSSVVTVPSSSLGTQTYICNVNHKPSNTKVDKRVEPKSCDKTHTCPPCPAPEAEGAPSVFLFPPKPKDTLMISRTPEVTCVVVDVSHEDPEVKFNWYVDGVEVHNAKTKPREEQYNSTYRVVSVLTVLHQDWLNGKEYKCKVSNKALPSSIEKTISKAKGQPREPQVYTLPPSREEMTKNQVSLTCLVKGFYPSDIAVEWESNGQPENNYKTTPPVLDSDGSFFLYSKLTVDKSRWQQGNVFSCSVMHEALHNHYTQKSLSLSPGK
light: DIVLTQSPASLAVSLGQRATISCRASESVDNFGVSFMYWFQQKPGQPPNLLIYGASNQGSGVPARFRGSGSGTDFSLNIHPMEADDTAMYFCQQTKEVPYTFGGGTKLEIKRTVAAPSVFIFPPSDEQLKSGTASVVCLLNNFYPREAKVQWKVDNALQSGNSQESVTEQDSKDSTYSLSSTLTLSKADYEKHKVYACEVTHQGLSSPVTKSFNRGEC
modifications: Chimeric homo sapiens mus musculus
effect on tumor growth / tumor volume and mice survival [1]: only marginal effect
maximum inhibition achieved, cellular CD39 ([2]; Ramos cells, 20 μM ATP): 81.6%
blocking CD39 enzymatic activity in tumor (Ramos) cells ([2]; result in words): highly potent at blocking CD39 enzymatic activity
potency and maximal inhibition of cellular CD39, comparison between antibodies (FIG. 2A) (cell-membrane bound CD39; compared with BY40): greater potency and maximal inhibition of cellular CD39 compared to BY40; also recorded: greater potency at all concentrations as well as greater maximal inhibition of cellular CD39 compared to BY40
inhibition of cell-membrane bound (cellular) CD39 ATPase activity (cell-membrane bound CD39; result in words): inhibit cell-membrane bound CD39
blocking CD39 enzymatic activity in cells expressing cynomolgus CD39 (CHO-cyCD39) [3]: blocks CD39 enzymatic activity; also recorded: highly potent at blocking CD39 enzymatic activity
